Assay results as given in the DeepSol protein solubility set.

Test: soluble on expression in E. coli; label from the status in PepcDB or PDB records

Row | Sequence | soluble on expression in E. coli
1 | MGSDKIHHHHHHEKKDKKENDTSAAQATETDCTAAELVTTEPEAEITISEMIDQRIKEEGKIMMYRMHFGPSKTPLEITEDLNVNIISYDGKELIDYGNSSNRRGETRLGDIIHNKVDYSTYDIGAYGGSWKRHRRVSGGDEKYVEEEGYVQREITTDDSGNNTQMETLYLYSKGTLYTREEGSEVWNQTEKNDNLPVVAFGTFERIKLDGKTYMTFCVRDDLNLIKYIIIPDNKFTENKTVVYDTPGTEGTTVNTVDYLKEYQAVPKEELEQMIVFPGSKKAESSQAAD | not soluble
2 | MAKTLGLHILADLYGVDADKIDRVEDIRELLEGAVKYANLTKISSHYYQFQPHGATGVVLLAESHISIHTWPEHGLATVDVYTCGDPSKAYRAMDYIITQLNPKRIDKQVHERGIVEEESNQSEAEKLRSILLQV | soluble
3 | MNVTRKKGPLYLQIKNIIRDRILHGVYAIHTNIPSEPQLEEEFKVSKITVRNAIKELAQEGYLEKKSGKGTKVIRNTSATKLSKGKKFTEVLVEEGYKVQKKLLKAEIVHNEEGTVPFRLFGKESFRIERLYTLNDAPYIHYTHYFSAHMASTDLSDFDLQSLYDLVEDRGIHLENFRDEFAVGLAPSFVAEALGEKEGTALLKRMRYSYDEVGEVIEYSEGYYNTEMQHYVVNYDV | not soluble
4 | MSLSTYILNTNDKARERLSLQHQLYAKSSLDLLSEVGPSAAMTALEIGCGSGDMTLELAKLIGREGSLLTIDLSQDQLDHTQQRTRTYSNIRFKVWDVNHLSDLGEKFDLIYCRMVLHHVADARSVILQMKNCLNSGGFVVCEEPSLFDSTFCSPPSPSYDQFTQWARSCFSKSNRDFQIAHRLEQEFSSCGFEIEHCSLFQPLLRTNKEKLIYSMALDDLTPQLLELGIAKREEIKQLHNELEDLAKTNSTMCWIRMHKIIAKLNEGHHHHHH | soluble
5 | MNLKREQEFVSQYHFDARNFEWENENGAPETKVDVNFQLLQHDQENQVTSLIVILSFMIVFDKFVISGTISQVNHIDGRIVNEPSELNQEEVETLARPCLNMLNRLTYEVTEIALDLPGINLEF | soluble
6 | MAHHHHHHMITMECITKKIKTIFQNSIQKCFPSISEDAIVTYANLKFGHYQCNNAINIYKKYGKELNYENAQKISEFIISNINETIFEEIKSSPQGFITVKLSKDYIETSLKKLFNGEKIDISININDIKESNENYGNVLVDFSSPNIAKEMHVGHLRSTIIGDSICRVFEFLKINTHRVNHVGDWGTQFGMIINYIKTHYPNFKEEMPDLSNLTSLYQESKKMYDADKEFEKSSKENAIKLQNNDEDCKFVWNKLCESSKKEFDKLYNILDIKLEYVGESFYVPMLSTVLDLLKESKLLTNIGDAICYQSENFKVPLFLQKSNGGYGYDSTDVAALYYRLTQLNCNCVIYVTDIGQLTHFETIFDLIKKTNWGDKNAKLMHVGFGFVLNEDNKKFKTRSGTTVKLINLIKEGTERAKRDLLQRIETKSEEEKSYFENVDIDQLSESLCVSAIKYFDLKQHRNSDYKFSYDNMLNVKGNTGIYIIYGYSRICSIFRKSTINVEDISKDELSLTSIYEINLGLHILKFPDIFYYILKNMLVHKLAEYMYDLTTTFTAFYENCKVLNNENEKSRLLLCSITKSLLKLCMELLGMKPIEKL | soluble
7 | MDGSFVQHSVRVLQELNKQREKGQYCDATLDVGGLVFKAHWSVLACCSHFFQRIYGDGTGGSVVLPAGFAEIFGLLLDFFYTGHLALTSGNRDQVLLAAKELRVPEAVELCQSFQPQTSVGQAQSGLGQPASQDVKSHLKEPTDLDEEEVFKTLSLASVDQEPRDTEQPQLGTPAQSSTAFLCGKLTQALKPSPSEDKESEDCKEPPRPFEAGGAPLQGESNEWEVVVQVEDDRDGDYVSEPETVLTRRKSKVIRKPCAAEPALGAGSLTAEPTDSRKGAAVPVECPTCHKKFLSKYYLKVHNRKHTGEKPFECPKCGKCYFRKENLLEHEARNCMNRSEQVFTCSVCQETFRRRMELRLHMVSHTGEMPYKCSSCSQQFMQKKDLQSHMIKLHGAPKPHAVSASQGWGSGGSGTAQSCPHLDVLPLPVSPTCSAPLVPSASCLGRSYSCTRLLSIVEKSSLCVRNAGTGPRAATGCRCTSRPSTGMKGLMSVSSAAMPSPRRPTSTCTCARTPARSLSSATSVGRPSAPKFGQAQPHPHGREAFQL | soluble
8 | AKVQAYVSDEIVYKINKIVERRRAEGAKSTDVSFSSISTMLLELGLRVYEAQMER | soluble
9 | MDVADISKKQSILKQFEREGVKNVLFTDCLRQHDENVKKHPVIRCLMFQIVPLVSKLIESTSRFHREEERCYCLMVIGVPNVGKSSLINALRRTYLKKGKASKVGAEPGITKAVLTKIQVCERPIIHLLDTPGVLPPRIENIETGMKLALCGTVLDHLVGEDVIADFLLFSLNRLERFSYVEKYSLEEPCDDIQHVLKCIAVKLGKTRRVKAITGVGNITVQLPDYSAAAYDFIRAFRKGELGKVMLD | not soluble
10 | ADKNPGSENMTNTIGPHDRGGSSPIYNILNSYLTAYNGSHHLYDRMSFLCLSSQNTLNGACPSSDAPGTATIDGETNITLQFTEKRSLIKRELQIKGYKQFLFKNANCPSKLALNSSHFQCNREQASGATLSLYIPAGELNKLPFGGVWNAVLKLNVKRRYDTTYGTYTINITVNLTDKGNIQIWLPQFKSNARVDLNLRPTGGGTYIGRNSVDMCFYDGYSTNSSSLEIRFQDDNSKSDGKFYLKKINDDSKELVYTLSLLLAGKNLTPTNGQALNINTASLETNWNRITAVTMPEISVPVLCWPGRLQLDAKVKNPEAGQYMGNIKITFTPSSQTLDNKQVEKNITVTASVDPVIDLLQADGNALPSAVKLAYSPASKTFESYRVMTQVHTNDATKKVIVKLADTPQLTDVLNSTVQMPISVSWGGQVLSTTAKEFEAAALGYSASGVNGVSSSQELVISAAPSTAGTAPTAGNYSGVVSLVMTLGSDNKQVEKNITVTASVDPVIDLLLEHHHHHH | soluble
11 | DNDSAPKEPTGPVTLIFTDIESSTALWAAHPDLMPDAVATHHRLIRSLITRYECYEVKTVGDSFMIASKSPFAAVQLAQELQLCFLRLDWETNAVDESYREFEEQRAEGECEYTPPTASLDPEVYSRLWNGLRVRVGIHTGLCDIRYDEVTKGYDYYGRTSNMAARTESVANGGQVLMTHAAYMSLSGEDRNQLDVTTLGATVLRGVPEPVRMYQLNAVPGRNFAALRLDR | soluble
12 | MGSQAAHMMSMDFEDFPVESAHRILTPRPTVMVTTVDEEGNINAAPFSFTMPVSIDPPVVAFASAPDHHTARNIESTHEFVINITPADIIERMWVTARDIPAGENELEAAGLAWTSSRRVKPPRIVEAPGHLECELLRMFEVGDHNLITGSVVSASVRSGAVKEGLLDVESVKPVLHVGGNKFVVGDHVRHVE | soluble
13 | MASDESMVPYYQWNFAPVVRGIARTQARVEVLRDGYTVSNELVPSGPFELANLPLGGGSGELKVIIHESDGTKQVFTVPYDTPAVALRKG | soluble
14 | MGSDKIHHHHHHMKIVYFVDGLNRGGVESVVCHLSSSFAKLRNKIYIICLHKDMNDLHLEIPEYISVFYLPFESNRNHHVNYIRYLPNLVDLLKKIKPDIVHAHNSSFSYFFLSIGILLSRTVPVNIRSIHFSGFFLEKRTIEDKIRFIFDWCACRLLKTIIISVGPTVSRVVKRLYTSNQHLTIVNGIDTKEKFCKRNLTKSCMGISEDKYVAVYVARICEGKNHDTLIKAWEIVTQYHPSALLLFIGDGPLKEQYQSVVHEKSLDDKITFTGSIPNIVEYLSIADVGVFPSESEGLPLVLMEMMAVELPVVASKIPSCCDLIEENVNGILYETYDYKDLANKILSVLCDNELKKKLGEQAKLLVCNHYSIENMINRHNILYQKLLLKQNFTDAYN | not soluble
15 | SFNTYQHLLPETVRHLPDVKKQLAMVRPGLSMLSIFICLKGTKEDLKLQSTNYYVYFDTDMDKAMERYVSMPKEKAPEHIPLLFIAFPSSKDPTWEERFPDRSTMTALVPMAFEWFEEWQEEPKGKRGVDYETLKNAFVEASMSVIMKLFPQLEGKVESVTGGSPLTNQYYLAAPRGATYGADHDLARLHPHAMASIRAQTPIPNLYLTGQDIFTCGLMGALQGALLCSSAILKRNLYSDLQALGSKVKAQKKKM | soluble
16 | MTRAQPEPVQVVKQRRDAALRALVSGVPYITYLGIQFDRRGDELTAVLPFDEKLIGNPMLPAIHGGVTAAFLEVASIIELSWSVLWHEMEQGRLDPDQIEARLPRLPKTIDFTVDYLRSGLPRDAYARARVNRSGRRYASVHVEAWQDNRLRPFAQATGHFLMPARNDLEHHHHHH | soluble
17 | MERVVINVSGLRFETQMKTLAQFPETLLGDPEKRTQYFDPLRNEYFFDRNRPSFDAILYYYQSGGRLKRPVNVPFDIFTEEVKFYQLG | soluble
18 | GAMGSDFLLGNPFSSPVGQRIEKATDGSLQSEDWALNMEICDIINETEEGPKDALRAVKKRIVGNKNFHEVMLALTVLETCVKNCGHRFHVLVASQDFVESVLVRTILPKNNPPTIVHDKVLNLIQSWADAFRSSPDLTGVVTIYEDLRRKGLEFPM | soluble
19 | MSLKYAVLGATGLLGHHAARAIRAAGHDLVLVHRPSSQIQRLAYLEPECRVAEMLDHAGLERALRGLDGVIFSAGYYPSRPRRWQEEVASALGQTNPFYAACLQARVPRILYVGSAYAMPRHPQGLPGHEGLFYDSLPSGKSSYVLCKWALDEQAREQARNGLPVVIGIPGMVLGELDIGPTTGRVITAIGNGEMTHYVAGQRNVIDAAEAGRGLLMALERGRIGERYLLTGHNLEMADLTRRIAELLGQPAPQPMSMAMARALATLGRLRYRVSGQLPLLDETAIEVMAGGQFLDGRKAREELGFFSTTALDDTLLRAIDWFRDNGYFNTEGHHHHHH | soluble
20 | MEEMRDNDVPVQQALFDMGPDEEVGYRVPIACQVAGITYRQLDYWARTKLVEPTIRTARGSGSQRLYSFKDILVLKIVKRLLDTGISLQNIRLAVDKLRNRGVDDLAEITLVSDGTTVYECRSNEEVIDLLGGGQGVFGIAVPGIVRELTGTISSFPSEKISDFLSNSPAAGGIDELAARRLRKTS | not soluble
21 | MGSDKIHHHHHHMKIDFHTHIYPDHVAVRTIAAVRQRAGIEAHTDGTLKGLKRSMTAAGIDISVVAAVATRPEQVSSIHCWLGGIRQPGIETMATTHPSNPLKSEQIKSLKRRGFKGFKLHPDYQHFFVDDFRMYPFYEAAAAEGMFILFHAGMDRGLPYPVHATPKRLAAVHEAVPRLCMIAAHLGGEEAYEETVAHLLGKDLYLDTSFVLRKMPRLFLERIFREHPPDKLLFASDSPWTDQREELNFLLQLPFLSVQDQEKICFSNAARLLGREA | not soluble
22 | MESSKKTSRSRSTTQEAVRDIKKYIRDNRLRTGDLLPSEAFLCEELGCSRSAIREAIRALVTLDIVEVRHGYGTFVSRMSLEPLINGMVFRTVLDNDTSVENLFYVVDTREILDLSLGEELIEVFTDDDRELLLDLVDKMREHNDQGESFVVEDQKFHRALLARTKNPLIRELNDAFWQIQTEAQPMLNLAMPADIDETIKAHSDIVEALSSGNIDDYRSAVLAHYAPFRRMISNMLDAH | not soluble
23 | MSLETDDQYYRAIKKIKEAAEASNRAYLTSSKLADMLGISQQSASRIIIDLEKNGYITRTVTKRGQILNITEKGLDVLYTEFADLSRILAIKNNVVITGTVTSGMGEGRYYVARKQYIIQFQEKLGIIPYLGTLNIKVDQASLPELRKIRGFRGIHIEGFKTEDRTFGSVKAFPAKIQNIPCFVIMPERTVYTDVIEIISDKYLREEINLHDGDRVSVEVYTEGHHHHHH | soluble
24 | MKIYVSCDIEGLAGIATFDMEKEDTVLFRELYHQHVAWLIEGIQKSAKNEQITEITIADSHSRGLNLAYARLAEMDERISLVSGFPRMDYMMSGLDSSYDVVFFLGYHAGIGKQKGNMDHGYSASVAYDLKINDLAMNETTINAAYASELGVPVGLIIGESGLEEQLFQEKMMPEVPFVSTKESLGRYAIKNRPMQQVREAIVATTSQVLTSFALSELPRYALQTPATVKLQCVTTAQADRIEMLPMIKRIDGRTVSFVGETMKDVMNGIVAVVGLGGTSY | not soluble
